The record followed here is the supplement of paper PMC12042874.

± gives the uncertainty stated by the source.

This series can be described thus: amyloid nucleation score (Sup35N fusion, yeast selection) (log enrichment); library NNK2; higher = more nucleation; inactive = no reads after selection. The procedure, abridged:
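Sup35N was fused to peptides of 20 random codons and expressed in psi-negative yeast, which were induced with 100 μM copper sulfate for 24 hours and then grown on medium lacking adenine and uracil for 7 days at 30°C. Plasmid inserts from input and output were sequenced on Illumina. The nucleation score is the DiMSum log enrichment of output over input reads, centred on the mode score of non-aggregating sequences. Sequences with under 100 input reads were left out, and random libraries had three technical output replicates.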
The substance LELLSLIFSFG had an amyloid nucleation score of 2.13 ± 0.18.

On to CVILLVIFMLYIYWFSDMFL, for which the amyloid nucleation score was -0.721 ± 0.63. For PELSNDQGYFVDSVKSGKVE the value was -0.036 ± 0.48; for IFAVGTTTASKCVWKIVEQE, 2.09 ± 0.11. As to LTIDQHKVCLPN, the amyloid nucleation score result is “inactive”. Under DLRLYILNL stands 6.556 ± 0.055; under QQVQNAVCGWESYCSQLNRR, -0.241 ± 0.48. For LSVRPASNELCAHVVVRFEC the value was 3.66 ± 0.09; for LFEMC, 0.443 ± 0.26; for SVLTIRLKMQGHWLPGAAGC, 3.66 ± 0.15. For VTTKKHPIYTVTRRDRKPGD the value was 0.524 ± 0.32.

WIWVMWNKLCDSPDVWLANW: the amyloid nucleation score came to 0.816 ± 0.51. For SQIRFWSRPRDCFGFLMRYV the value was -0.852 ± 1.

RRVNFMKVTFNLKVILFRWS showed an amyloid nucleation score of -1.52 ± 1.1. For ISDSRLRKCVAPHSRDSGGH the value was 1.96 ± 0.19; for SSSREALCRKHDGVL, 0.905 ± 0.45; for CEFLMLFREFLDW, 4.59 ± 0.055. For DWCVNVIERSGDTLEVMCNF the value was 0.817 ± 0.8. For LFKFDVPTNIKCYIRSSCSI the value was “inactive”; for YTNTKKVLLVSVNVPRFLPV, 1.99 ± 0.17; for CTFFTSTPT, 0.343 ± 0.51. VRIIETGRC returned an amyloid nucleation score of 0.136 ± 0.39. Under RASANYRSSYFERSPDVVRE stands 3.63 ± 0.14; under ECNTSVLSTWARDLVSPVLT, 4.3 ± 0.053. For TMYVREYSFYFLYNVDITRG the value was 0.649 ± 0.32.

CLRGSR gave an amyloid nucleation score of 0.03 ± 0.2. Under AWLWKMFNGTCNRWYINRPL stands -0.81 ± 0.76; under EVLARR, 0.611 ± 0.46; under PFACYGFCRM, -1.29 ± 0.76.

On to SSKYYA, for which the amyloid nucleation score is -0.131 ± 0.32. Under KRGKMHYCKFAHAAITVTQL stands -0.515 ± 0.43; under LMSFGDLCIHLGFGSCFCLM, -0.631 ± 0.39; under LHILRA, 0.605 ± 0.47. Under RCQTFLGKETPSFYRKIVKF stands -1.02 ± 0.55. Under EFAELSSRQRFWHMFV stands 1.04 ± 0.34. Regarding VMFLFGGCTDNS, the amyloid nucleation score was determined as 0.382 ± 0.8. For NVVFRFVVEYNLWWLSVPDY the value was -0.578 ± 1.1; for SVAASGFHVV, -1.57 ± 0.76. Under FLSCQTYRKNQADNADASSI stands -0.076 ± 0.56; under LMLGSWQDKMPSLLWLDLCV, 0.86 ± 0.52. For ANTCVPPLLRMFPLRGRTHI the value was -0.184 ± 1.1; for CINYG, 0.96 ± 0.39. RWYRRCLYT showed an amyloid nucleation score of 0.162 ± 0.37. Regarding GSPIESGVFNANLWPYDAYG, the amyloid nucleation score was -0.216 ± 0.41.

On to ADFFVLDMWLTYCMKTLFSC, for which the amyloid nucleation score was -1.27 ± 0.48.

VQRYRVFVAICFCGEMQRGF: the amyloid nucleation score result was “inactive”. For SNEHKYFQNIATNVLV the value was -0.371 ± 0.64; for HEGNKRARYLALLSEIYFQW, 4.65 ± 0.084; for GENKDYWGHGYVSLACNRQG, 0.492 ± 0.38. For GWCRYLKDLYI the value was -1.1 ± 0.36; for FFTQGSCDTILRGLAFFTPR, -0.26 ± 1. Under NLFPSQTLYVFRHVGCCG stands “inactive”; under VVSGTLKKMGVFGTSAIISE, 0.494 ± 0.8. With DIFLM, the amyloid nucleation score was 0.487 ± 0.15. IVFFTECSYSLFRWIMNNVW came in with an amyloid nucleation score of -1.4 ± 0.39. For VEDDDN the value was -0.2 ± 0.63.

Take SLYLRSRSRISFMGVGQKEL: the amyloid nucleation score is 3.28 ± 0.11. Under SFHIVKDYNSDMYYFFNELV stands “inactive”; under EMGVGSYSGRCATSGGSNLQ, 0.929 ± 0.27; under HNGSNFGTWSQGSLRHVRAR, -0.023 ± 0.31. Under FLNDI stands “inactive”; under YHKRSPIYSVLYDLDSFK, -1.04 ± 1.1.

On to PSQAGKIMVLKNTRWNHRDC, for which the amyloid nucleation score turned out to be 1.01 ± 0.52. Under WVWGIGSFRRSFQCWWWFSN stands -1.86 ± 0.73; under LGHASSFCAYCRFDSM, 4.16 ± 0.068. For PLLFIMANFCLVVLHVSFYN the value was -0.639 ± 1. Under ILADINL stands “inactive”; under YLCSSRITL, 1.31 ± 0.47. Substance MLMSNFCF gave an amyloid nucleation score of -0.077 ± 0.74. For HSLSWKCV the value was 0.346 ± 0.74; for LGPCSVIGQMVMYDRYGLLD, -0.313 ± 0.76.

On to LLKARLLRSHLWVG, for which the amyloid nucleation score was found to be 0.057 ± 0.43.

In turn, WSRSNLCTFSFLGNIISPDR displayed an amyloid nucleation score of 4.02 ± 0.073. For SSVQNCSVCVGGPMYREFSW the value was 4.994 ± 0.042; for RAVDDYRE, 0.88 ± 0.3. Under CLRLFTQSGFE stands -0.362 ± 0.38; under NRQRRPRLVDKYGASRGVVY, 3.31 ± 0.11. Under FPLIDTYLEFMEPNGYWNSS stands 0.516 ± 0.81.

NVWNLQLYPTATCAKYNGAV: the amyloid nucleation score was determined as 4.13 ± 0.045. For GCLTNTSSGMHWS the value was -0.208 ± 0.24; for NEFIEVALSLYRVNCQRNFI, -1.5 ± 0.53; for DTRFEVNAFTIGNRYATNGS, -0.869 ± 0.41. For LIQRVRGCWTSYVYGGVWSR the value was 1.66 ± 0.34; for HYQWQYACLWRCVTVRGSDQ, 0.949 ± 0.17; for VLIALKLFWIVQWYICAICV, -0.099 ± 0.39.

Substance FWLLSTCGV displayed an amyloid nucleation score of -0.408 ± 0.29.

For the substance YIGRMVV, the amyloid nucleation score amounted to 0.306 ± 0.65. For TTRSRVWRKLGSSCTI the value was 0.242 ± 0.31. For SLSSGHETVR the value was 3.69 ± 0.15; for TLYKFM, -0.476 ± 0.74.

In the case of RNIIFTWGLCC, the amyloid nucleation score came out at 5.913 ± 0.035. VWVWCFR: the amyloid nucleation score was 8.331 ± 0.042. Under LFVVTVTIMCYLSKEYVGLP stands 0.039 ± 0.51; under YFKTWAICHWFCNWRRLWMN, 0.305 ± 1. Under TVGRWH stands -0.939 ± 0.76; under FVLNHLAV, -0.548 ± 0.54. Under WNIWFTVCYCKHLSKSKGSD stands 8.667 ± 0.033; under CAPVTLVFRYAGIYMQLFIW, “inactive”; under KAHIAVDGIMA, 0.117 ± 0.33. With LRYHKTILYTRFSRNHTYAT, the amyloid nucleation score is 0.498 ± 0.74. Under SYMFDSEVQVRTDFLLFCYI stands 0.346 ± 0.17; under TARLLSPQ, -0.376 ± 0.76. Under YRFKIMCLVSPHFV stands 0.736 ± 0.6. Under YNMCYNG stands -0.781 ± 1.1. CIEDRVCLDS registered an amyloid nucleation score of 8.276 ± 0.041.

On to NLHFSLNCMIFQPTASRLKH, for which the amyloid nucleation score was determined as 6.824 ± 0.031. In the case of SRYIM, the amyloid nucleation score is -1.06 ± 1.1.

ACNFQVCGWERQSSRFR returned an amyloid nucleation score of 3.14 ± 0.087. Under VDAFLWHVDVHMFIEVGVRW stands -0.024 ± 0.65; under VVRKGCL, -0.86 ± 1.1. Under HARVKLVIILLTLREGGMFW stands -0.108 ± 0.62; under YNTPIIPAWVFSFHQWPEAF, -1.6 ± 1.1.

INIMARIWLQSVWLSVGRKS displayed an amyloid nucleation score of 0.097 ± 0.79.

The substance TYRSEYCICLLLSAFFQMKG had an amyloid nucleation score of -1.08 ± 1.1.

Substance NKFDRFMFPRVR displayed an amyloid nucleation score of -0.98 ± 0.35. For FEYIVVESVCRSWWNLVS the value was -0.051 ± 0.55; for PDVPIFCPYAAAMKVAVCYR, -0.526 ± 0.76; for TISLRGDMDSSCKGIEGSSL, -0.316 ± 1.1.

Substance RVDLVDSSICADANLLG displayed an amyloid nucleation score of 1.17 ± 0.26. Under CSLLGNFYILGYWATFMASD stands -1.57 ± 0.53. Under DASMQF stands 0.797 ± 0.57; under YFWSFYEVISFDCYHLIIFS, 0.004 ± 0.18. For LISATPQSSFHHFEMNSGSH the value was 0.275 ± 0.23; for DSNTPHASMRYISFKRFFFV, -0.107 ± 1; for SIRARGLAMRSYSPT, -0.093 ± 0.55. In turn, WHGVDVIVRLMVAHPLGRTS registered an amyloid nucleation score of 4.36 ± 0.11. Regarding VMCFNAVSLTFVFRDMTSYY, the amyloid nucleation score amounted to 8.804 ± 0.05. Under LSRKTYWA stands 0.894 ± 0.43.

The substance FGFWSPATVNNVRALIKDCV registered an amyloid nucleation score of -0.409 ± 0.53. Under GEDCWRPPVR stands 0.559 ± 0.5; under QLVGDELMRCSNGAVDKNVA, 1.75 ± 0.24; under VIDGNKDGSMTFPVQGDALR, 1.2 ± 0.48. Under ELPGPHSGVTPPACEWSTHP stands 0.422 ± 0.24; under NQNNDHSTWSIFKLCEVGCL, 8.986 ± 0.045. For SFFFPWCVTGLRVSHTTAKF the value was -0.237 ± 0.63; for NIRLRFCFRQMEWHNRFRDC, 3.93 ± 0.069.

VDHYTETTRL came in with an amyloid nucleation score of 0.493 ± 0.24.

HAYSWNNRPVGVVRSRSRLF displayed an amyloid nucleation score of -0.597 ± 0.34. Under LYFASVNQTNSFLRIL stands 2.93 ± 0.073. With DFIEMVLDGCSHGLATVCPT, the amyloid nucleation score result was “inactive”.

Consider LYSESIVLFAYGFNGDGGLY, for which the amyloid nucleation score is -0.67 ± 0.29. For NISGATMEVVIYHDAVCESN the value was -0.361 ± 0.63.
